Reference: US8173771B2, “Humanin receptor or humanin-like polypeptide receptor” (Keio Univeristy, priority 2005, dated 2012)

Biological target: T1, G-CSFR/gp130 chimera proteins (Homo sapiens, UniProt P40189+Q99062)
T1 construct: the extracellular domain of the human G-CSF receptor fused to the full transmembrane domain; expressed in transfected cells; host or cells: F11 cells
T1 sequence (Q99062+P40189 with tags, fused parts or gaps): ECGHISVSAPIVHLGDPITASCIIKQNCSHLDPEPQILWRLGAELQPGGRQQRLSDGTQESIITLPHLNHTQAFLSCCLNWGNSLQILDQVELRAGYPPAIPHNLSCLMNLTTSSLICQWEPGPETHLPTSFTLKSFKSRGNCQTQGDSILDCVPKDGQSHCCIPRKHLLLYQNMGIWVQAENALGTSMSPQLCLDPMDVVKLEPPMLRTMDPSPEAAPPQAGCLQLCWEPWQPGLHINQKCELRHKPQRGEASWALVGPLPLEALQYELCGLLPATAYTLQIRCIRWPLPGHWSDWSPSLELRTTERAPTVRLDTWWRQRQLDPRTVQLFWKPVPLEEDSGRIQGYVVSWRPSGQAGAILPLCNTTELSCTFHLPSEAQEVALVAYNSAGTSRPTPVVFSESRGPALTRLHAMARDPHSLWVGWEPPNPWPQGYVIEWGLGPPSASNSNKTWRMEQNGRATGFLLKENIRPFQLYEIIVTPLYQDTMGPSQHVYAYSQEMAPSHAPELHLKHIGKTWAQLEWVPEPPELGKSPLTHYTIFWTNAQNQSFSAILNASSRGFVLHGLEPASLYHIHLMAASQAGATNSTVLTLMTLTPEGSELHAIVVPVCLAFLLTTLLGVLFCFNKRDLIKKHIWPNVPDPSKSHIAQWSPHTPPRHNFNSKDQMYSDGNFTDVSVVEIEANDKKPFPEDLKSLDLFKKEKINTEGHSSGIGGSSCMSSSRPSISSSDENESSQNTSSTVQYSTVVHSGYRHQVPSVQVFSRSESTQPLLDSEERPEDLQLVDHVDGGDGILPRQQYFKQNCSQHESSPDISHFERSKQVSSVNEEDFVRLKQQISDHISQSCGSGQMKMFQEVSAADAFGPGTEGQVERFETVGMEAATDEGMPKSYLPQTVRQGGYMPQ
Experiment: G-CSF stimulation of G-CSFR/gp130 chimera proteins in F11 cells, cell mortality by Trypan blue exclusion
Assay type: cell-based
Settings: 100 nM; G-277 expressed
Description: B) F11 cells were transfected with 0.5 μg of the pcDNA3 vector or pcDNA3-APP in association with 0.5 μg of the pEFBos vector or the pEFBos vectors encoding the extracellular domain of the human G-CSF receptor fused to the full transmembrane domain and a C-terminally truncated intracytoplasmic domain of gp130 (named “G-CSFR/gp130”). G-CSFR/gp130 (277) contains the full intracytoplasmic domain of gp130 corresponding to amino acids 1-277, while G-CSFR/gp130 (25), (68), and (133) contain the intracytoplasmic domains corresponding to amino acids 1-25, 1-68, and 1-133, respectively. At 24 hr after transfection, the cells were added with indicated amounts of human G-CSF. Cell mortality was determined by Trypan blue exclusion assay at 72 hr after transfection. The results of immunoblot analysis of the expression of […] are shown in photos.
C) Instead of the pcDNA3-V6421-APP vector, pcDNA3-K595 N/M596L-APP (NL-APP), M146L-PS1 and N141-I-PS2 vectors were used to do the same experiments as in FIG. 2A. The results of immunoblot analysis of the expression of NL-APP, M146L-PS1 and N141-I-PS2 are shown in photos.
D) F11 cells were transfected with 0.5 μg of the pEFBos vector or pEF-G85R-SOD1 in association with 0.5 μg of the pEFBos vector or each pEFBos vector encoding G-CSFR/gp130 (277) or G-CSFR/gp130 (25). At 24 hr after transfection, the cells were added with indicated amounts of human G-CSF. Cell mortality was determined by Trypan blue exclusion assay at 72 hr after transfection. The results of the expression of G85R-SOD1, which were confirmed by the immunoblot analysis, are shown in photos.
Neurohybrid F11 cells and pcDNA3 vectors encoding V642I-APP, K595N/M596L-APP (NL-APP), M146L-PS1, and N141I-PS2 cDNA were prepared as already described (Hashimoto et al, 2000, 2001a, 2003). pCAG-human gp130 and pCAG-human gp130 ED (the extracellular domain of human gp130) were prepared as described (Kumanogoh et al., 1997). pcDNA3 vectors encoding the extracellular domain of the G-CSF receptor fused to the full-length transmembrane domain and various portions of the intracellular domains of human gp130, were prepared as described (Fukada et al, 1996). The intracellular domain of gp130 was C-terminally truncated. A chimera protein named G-277 contained a 277 amino acid-long full intracellular domain of gp130 (SEQ ID NO:35), while G-195, G-133, G-68, and G-25 contained the amino acids 1-195 (SEQ ID NO:36), 1-133 (SEQ ID NO:37), 1-68 (SEQ ID NO:38), and 1-25 (SEQ ID NO:39) intracellular portions, respectively. C-terminally myc-tagged human WSX-1 and myc-tagged mouse CREME9 cDNAs were amplified from human and mouse embryo cDNA (BioChain) by PCR using sets of sense primers and antisense primers: 5′-[…]-3′ (SEQ ID NO:3) and 5′-[…]-3′ (SEQ ID NO:4) for human WSX-1; 5′-[…]-3′ (SEQ ID NO:5); and 5′-[…]-3′ (SEQ ID NO:6) for mouse CREME9. Plasmids encoding C-terminally V5-tagged human CNTF-R (V %-CNTF-R) and rat IL-6R (pUCM18-rat IL-6R) were purchased from Invitrogen and American Culture Collection, respectively. A pEFBos vector comprising familial ALS (FALS) gene G85R-SOD1 was kindly provided by Dr. Shoji Tsuji. Cosmid of human wild […] was constructed by inserting a full-length gp130 into a SwaI site of pAxCAwt (TaKaRa).
The transfection procedures were as described (Hashimoto et al, 2000, 2001a, 2003). F11 cells, seeded at 7×10^4/well in 6-well dishes, were transfected with indicated vectors. Transfection efficiency in these protocols has been determined to be invariably around 70%. At 72 hrs after transfection, the Trypan blue exclusion assay and LDH assay were performed as a cell-death assay and the WST-8 assay was performed as cell-viability assays (Hashimoto et al, 2000, 2001a b, 2003). HN was added to the culture medium usually at 5 hrs after transfection, but in some cases at 24 hrs after transfection.

B1: G-CSF: human G-CSF, ligand stimulating G-CSFR/gp130 chimera proteins (protein, UniProt P09919 31-207, looked up)
Granulocyte …: TPLGPASSLPQSFLLKCLEQVRKIQGDGAALQEKLVSECATYKLCHPEELVLLGHSLGIPWAPLSSCPSQALQLAGCLSQLHSGLFLYQGLLQALEGISPELGPTLDTLQLDVADFATTIWQQMEELGMAPALQPTQGAMPAFASAFQRRAGGVLVASHLQSFLEVSYRVLRHLAQP
prevention of NL-APP-, M146L-PS1-, N141I-PS2-mediated neuronal cell death: prevented
prevention of neuronal cell death induced by V642I-APP: prevented
